Molecular target: T1, Human cytosolic aspartyl-tRNA synthetase (human), P14868
T1 chain: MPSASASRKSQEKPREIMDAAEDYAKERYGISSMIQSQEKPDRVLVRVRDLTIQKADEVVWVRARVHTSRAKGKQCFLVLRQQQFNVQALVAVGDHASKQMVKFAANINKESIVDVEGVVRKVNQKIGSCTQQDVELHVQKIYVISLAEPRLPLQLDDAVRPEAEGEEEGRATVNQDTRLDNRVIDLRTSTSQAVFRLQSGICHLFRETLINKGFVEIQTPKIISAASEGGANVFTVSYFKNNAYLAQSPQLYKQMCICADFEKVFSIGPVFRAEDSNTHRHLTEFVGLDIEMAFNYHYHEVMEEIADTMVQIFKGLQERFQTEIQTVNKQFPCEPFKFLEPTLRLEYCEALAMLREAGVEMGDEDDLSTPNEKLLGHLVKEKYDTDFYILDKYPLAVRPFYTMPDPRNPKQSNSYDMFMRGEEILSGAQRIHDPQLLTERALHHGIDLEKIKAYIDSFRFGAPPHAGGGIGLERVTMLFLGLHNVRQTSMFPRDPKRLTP
Assay: crystal structure
Conditions: remark: other sources report otherwise

- stoichiometry N: 2
B1: Human cytosolic aspartyl-tRNA synthetase, P14868 1-501 (enzyme)
chain: MPSASASRKSQEKPREIMDAAEDYAKERYGISSMIQSQEKPDRVLVRVRDLTIQKADEVVWVRARVHTSRAKGKQCFLVLRQQQFNVQALVAVGDHASKQMVKFAANINKESIVDVEGVVRKVNQKIGSCTQQDVELHVQKIYVISLAEPRLPLQLDDAVRPEAEGEEEGRATVNQDTRLDNRVIDLRTSTSQAVFRLQSGICHLFRETLINKGFVEIQTPKIISAASEGGANVFTVSYFKNNAYLAQSPQLYKQMCICADFEKVFSIGPVFRAEDSNTHRHLTEFVGLDIEMAFNYHYHEVMEEIADTMVQIFKGLQERFQTEIQTVNKQFPCEPFKFLEPTLRLEYCEALAMLREAGVEMGDEDDLSTPNEKLLGHLVKEKYDTDFYILDKYPLAVRPFYTMPDPRNPKQSNSYDMFMRGEEILSGAQRIHDPQLLTERALHHGIDLEKIKAYIDSFRFGAPPHAGGGIGLERVTMLFLGLHNVRQTSMFPRDPKRLTP
